# Like-named read-outs stand apart in the source and are kept apart here.
# How the values were obtained:
# Assay in all cases: cell-based or functional assay
# [1] = biological target: T1, SARS-CoV-2 Spike on pseudotyped virus (PsV) (SARS-CoV-2, UniProt P0DTC2 14-1273)
# [2] = biological target: T1, SARS-CoV-2 Spike on pseudotyped virus …; remark: listed apart in the source
# [3] = biological target: T1, SARS-CoV-2 Spike on pseudotyped virus …; remark: listed apart in the source
Binder,"IC50 SARS-CoV2 PsV, IgG [1] [µg/mL]","Median IC50, SARS-CoV-2 PsV neutralization [2] [µg/mL]","Median IC50, SARS-CoV-2 PsV neutralization [3]"
"mAb 178 (antibody, V domains shown) VH: QVQLVQSGAEVKKPGASVKVSCKASGYTFTDYHMHWVRQAPGQGLEWMGWINPNSGGTNYAQKFQGRVTMTRDTSTSTVYMELSSLRSEDTAVYYCARDISSWYEITKFDPWGQGTLVTVSS VL: EIVMTQSPATLSVSPGERATLSCKASQSVSGTYLAWYQQKPGQAPRLLIYGASTRATGIPARFSGSGSGTEFTLTISSLQSEDFAVYYCLQTHSYPPTFGQGTKVEIKR",> 50,> 50,–
"mAb 52 (antibody, V domains shown) VH: QVQLVQSGAEVKKPGSSVKVSCKASGYTFTSYGISWVRQAPGQGLEWMGGIIPMFGTTNYAQKFQGRVTITADKSTSTAYMELSSLRSEDTAVYYCARDRGDTIDYWGQGTLVTVSS VL: DIQMTQSPSSLSASVGDRVTITCRASQGISNNLNWYQQKPGKAPKLLIYAASSLESGVPSRFSGSGSGTDFTLTISSLQPEDFATYYCQQGNGFPLTFGPGTKVDIKR",0.55,0.61,–
"mAb 368 (antibody, V domains shown) VH: QVQLVQSGAEVKKPGSSVKVSCKASGYTFTSYDINWVRQAPGQGLEWMGAIMPMFGTANYAQKFQGRVTITADESTSTAYMELSSLRSEDTAVYYCARGSSGYYYGWGQGTLVTVSS VL: not shown",> 50,> 50,–
"mAb 160 (antibody, V domains shown) VH: QVQLVQSGAEVKKPGASVKVSCKASGYTFTGHDMHWVRQAPGQGLEWMGIINPSGGSTSYAQKFQGRVTMTRDTSTSTVYMELSSLRSEDTAVYYCARANSLRYYYGMDVWGQGTMVTVSS VL: DIQMTQSPSSLSASVGDRVTITCRASQSVSSWLAWYQQKPGKAPKLLIYAASSLQSGVPSRFSGSGSGTDFTLTISSLQPEDFATYYCQQGYTTPYTFGQGTKLEIKR",> 50,> 50,–
"mAb 108 (antibody, V domains shown) VH: QVQLVQSGAEVKKPGASVKVSCKASGYIFSRYAIHWVRQAPGQGLEWMGWMNPISGNTDYAPNFQGRVTMTRDTSTSTVYMELSSLRSEDTAVYYCAKDGSQLAYLVEYFQHWGQGTLVTVSS VL: DIQMTQSPSSLSASVGDRVTITCRASQVITNNLAWYQQKPGKAPKLLIYDASTLETGVPSRFSGSGSGTDFTLTISSLQPEDFATYYCQQSYTFPYTFGQGTKVEIKR",> 50,> 50,–
"mAb 64 (antibody, V domains shown) VH: EVQLLESGGGLVQPGGSLRLSCAASGFPFSQHGMHWVRQAPGKGLEWVSAIDRSGSYIYYADSVKGRFTISRDNSKNTLYLQMNSLRAEDTAVYYCARDTYGGKVTYFDYWGQGTLVTVSS VL: DIQMTQSPSSLSASVGDRVTITCRASQGISSHLAWYQQKPGKAPKLLIYDASNLETGVPSRFSGSGSGTDFTLTISSLQPEDFATYYCQQTYSTPWTFGQGTKVEIKR",> 50,> 50,–
"mAb 324 (antibody, V domains shown) VH: QVQLVQSGAEVKKPGASVKVSCKASGGTFNNYGISWVRQAPGQGLEWMGWMNPNSGNTGYAQKFQGRVTMTRDTSTSTVYMELSSLRSEDTAVYYCARVGDYGDYIVSPFDLWGRGTLVTVSS VL: DIQMTQSPSSLSASVGDRVTITCRASQSITTYLNWYQQKPGKAPKLLIYDASNLETGVPSRFSGSGSGTDFTLTISSLQPEDFATYYCQQSYSTPPTFGQGTKVEIKR",0.78,0.78,–
"mAb 349 (antibody, V domains shown) VH: EVQLLESGGGLVQPGGSLRLSCAASGFTFSNYGMHWVRQAPGKGLEWVSGISSAGSITNYADSVKGRFTISRDNSKNTLYLQMNSLRAEDTAVYYCAGNHAGTTVTSEYFQHWGQGTLVTVSS VL: DIQMTQSPSSLSASVGDRVTITCRASQSISSWLAWYQQKPGKAPKLLIYDTSNLETGVPSRFSGSGSGTDFTLTISSLQPEDFATYYCQQSYTTPWTFGQGTRLEIKR",> 50,> 50,–
"mAb 82 (antibody, V domains shown) VH: QVQLVQSGAEVKKPGASVKVSCKASGGSFSTSAFYWVRQAPGQGLEWMGWINPYTGGTNYAQKFQGRVTMTRDTSTSTVYMELSSLRSEDTAVYYCARSRALYGSGSYFDYWGQGTLVTVSS VL: DIQMTQSPSSLSASVGDRVTITCRASQVISNYLAWYQQKPGKAPKLLIYDASNLETGVPSRFSGSGSGTDFTLTISSLQPEDFATYYCQQSFSPPPTFGQGTRLEIKR",1.6,1.6,–
"mAb 46 (antibody, V domains shown) VH: EVQLLESGGGLVQPGRSLRLSCAASGFTFSSYAMSWVRQAPGKGLEWVSTIYSGGSTYYADSVKGRFTISRDNSKNTLYLQMNSLRAEDTAVYYCARGDSRDAFDIWGQGTMVTVSS VL: DIQMTQSPSSLSASVGDRVTITCRASQSISSWLAWYQQKPGKAPKLLIYDASNLETGVPSRFSGSGSGTDFTLTISSLQPEDFATYYCQQSYSTPFTFGPGTKVDIKR",2.1,2.1,–
"mAb 254 (antibody, V domains shown) VH: EVQLLESGGGLVQPGGSLRLSCAASGFTFSSSAMHWVRQAPGKGLEWVSAIGTGGDTYYADSVKGRFTISRDNSKNTLYLQMNSLRAEDTAVYYCAREGDGYNFYFDYWGQGTLVTVSS VL: DIQMTQSPSSLSASVGDRVTITCRASQGISSYLAWYQQKPGKAPKLLIYDASSLQIGVPSRFSGSGSGTDFTLTISSLQPEDFATYYCLQSYSTPPWTFGQGTKVEIKR",> 50,> 50,–
"4A8 IgG (antibody, V domains shown) VH: EVQLVESGAEVKKPGASVKVSCKVSGYTLTELSMHWVRQAPGKGLEWMGGFDPEDGETMYAQKFQGRVTMTEDTSTDTAYMELSSLRSEDTAVYYCATSTAVAGTPDLFDYYYGMDVWGQGTTVTVSS VL: EIVMTQSPLSSPVTLGQPASISCRSSQSLVHSDGNTYLSWLQQRPGQPPRLLIYKISNRFSGVPDRFSGSGAGTDFTLKISRVEAEDVGVYYCTQATQFPYTFGQGTKVDIK",–,–,> 100 g/mL as printed (µg/mL meant)
"mAb 120 (antibody, V domains shown) VH: QVQLVQSGAEVKKPGASVKVSCKASGYTFTSYDINWVRQAPGQGLEWMGMIDPSGGSTSYAQKFQGRVTMTRDTSTSTVYMELSSLRSEDTAVYYCAKDFGGGTRYDYWYFDLWGRGTLVTVSS VL: EIVMTQSPATLSVSPGERATLSCRASQSVSSRYLAWYQQKPGQAPRLLIYGASTRATGIPARFSGSGSGTEFTLTISSLQSEDFAVYYCQQYYTTPRTFGQGTRLEIKR",> 50,> 50,–
"mAb 192 (antibody, V domains shown) VH: QVQLVQSGAEVKKPGSSVKVSCKASGGTFSSYAISWVRQAPGQGLEWMGWINPNSGGANYAQKFQGRVTITADESTSTAYMELSSLRSEDTAVYYCSTYYYDSSGYSTDYWGQGTLVTVSS VL: DIVMTQSPLSLPVTPGEPASISCRSSQSLLHSNGYNYLDWYLQKPGQSPQLLIYAASSLQSGVPDRFSGSGSGTDFTLKISRVEAEDVGVYYCMQALQTPYTFGQGTKLEIKR",> 50,> 50,–
"mAb 180 (antibody, V domains shown) VH: QVQLVQSGAEVKKPGSSVKVSCKASGYTFTSYAMHWVRQAPGQGLEWMGRISPRSGGTKYAQRFQGRVTITADESTSTAYMELSSLRSEDTAVYYCAREAVAGTHPQAGDFDLWGRGTLVTVSS VL: DIVMTQSPLSLPVTPGEPASISCRSSQSLLHSNGYNYLDWYLQKPGQSPQLLIYAASSLQSGVPDRFSGSGSGTDFTLKISRVEAEDVGVYYCQQYYSSPYTFGQGTKLEIKR",> 50,> 50,–
"mAb 236 (antibody, V domains shown) VH: QVQLVQSGAEVKKPGASVKVSCKASGGTFTSYGINWVRQAPGQGLEWMGWMNPNSGNTGYAQKFQGRVTMTRDTSTSTVYMELSSLRSEDTAVYYCASRGIQLLPRGMDVWGQGTTVTVSS VL: not shown",0.057,0.057,–
"mAb 128 (antibody, V domains shown) VH: QVQLVQSGAEVKKPGASVKVSCKASGYTFTHYYMHWVRQAPGQGLEWMGIINPSSSSASYSQKFQGRVTMTRDTSTSTVYMELSSLRSEDTAVYYCARDGRYGSGSYPFDYWGQGTLVTVSS VL: DIQMTQSPSSLSASVGDRVTITCRASQNISRYLNWYQQKPGKAPKLLIYDASNLETGVPSRFSGSGSGTDFTLTISSLQPEDFATYYCQQANGFPPTFGQGTKLEIKR",> 50,> 50,–
"mAb 158 (antibody, V domains shown) VH: QVQLVQSGAEVKKPGASVKVSCKASGYTFTGYYMHWVRQAPGQGLEWMGWINPLNGGTNFAPKFQGRVTMTRDTSTSTVYMELSSLRSEDTAVYYCARDPGGSYSNDAFDIWGQGTLVTVSS VL: DIQMTQSPSSLSASVGDRVTITCRASQSISRYLNWYQQKPGKAPKLLIYDASNLESGVPSRFSGSGSGTDFTLTISSLQPEDFATYYCQQANSFPLTFGGGTKVDIKR",> 50,> 50,–
"mAb 56 (antibody, V domains shown) VH: QVQLVQSGAEVKKPGASVKVSCKASGYTFTSYGISWVRQAPGQGLEWMGWISAYNGNTNYAQKLQGRVTMTRDTSTSTVYMELSSLRSEDTAVYYCARDIGPIDYWGQGTLVTVSS VL: DIQMTQSPSSLSASVGDRVTITCRASQGISSYLAWYQQKPGKAPKLLIYDASNLQSGVPSRFSGSGSGTDFTLTISSLQPEDFATYYCQQANSFPSTFGQGTKVEIKR",> 50,> 50,–

# Source: patent US20250263469A1 (HOSPITAL FOR SICK CHILDREN, published 2025)
